In the supplement of paper PMC7125110:
± gives the standard error. For some of these results: This sample holds only a part of the variants without activity.

B1: glmS ribozyme (parent)
chain: AUAAAAGCGCCAGAACUACAGAAAUGUAGUUGACGAGGAGGAGGUUUAUCGAAUUUUCGGCGGAUGCCUCCAAA

Key:
Details in all cases: with glucosamine-6-phosphate
glucosamine-6-phosphate [1] = variants of: B1; experiment: kcat; higher = faster cleavage; RNA array
How it was run: (§1)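 Ribozyme variants carrying barcodes were transcribed in situ on sequenced MiSeq chips by E. coli RNA polymerase and tracked at 37 °C with a hybridised Cy3 probe. They were exposed to 40 μM to 10 mM glucosamine-6-phosphate in HEPES/KCl/Mg(OAc)2 buffer. kobs came from exponential decay fits of normalised per-tile medians, and kcat and KM from weighted Michaelis–Menten fits.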

glucosamine-6-phosphate [2] = variants of: B1; experiment: KM; higher = weaker cofactor use; RNA array
How it was run: as §1

glucosamine-6-phosphate [3] = variants of: B1; experiment: self-cleavage kobs at 40 uM GlcN6P; higher = faster cleavage; RNA array
How it was run: as §1

glucosamine-6-phosphate [4] = variants of: B1; experiment: self-cleavage kobs at 160 uM GlcN6P; higher = faster cleavage; RNA array
How it was run: as §1

glucosamine-6-phosphate [5] = variants of: B1; experiment: self-cleavage kobs at 640 uM GlcN6P; higher = faster cleavage; RNA array
How it was run: as §1

glucosamine-6-phosphate [6] = variants of: B1; experiment: self-cleavage kobs at 2500 uM GlcN6P; higher = faster cleavage; RNA array
How it was run: as §1

glucosamine-6-phosphate [7] = variants of: B1; experiment: self-cleavage kobs at 10000 uM GlcN6P; higher = faster cleavage; RNA array
How it was run: as §1

Row | Variant | kcat (glucosamine-6-phosphate [1]) | KM (glucosamine-6-phosphate [2]) | self-cleavage kobs at 40 uM GlcN6P (glucosamine-6-phosphate [3]) | self-cleavage kobs at 160 uM GlcN6P (glucosamine-6-phosphate [4]) | self-cleavage kobs at 640 uM GlcN6P (glucosamine-6-phosphate [5]) | self-cleavage kobs at 2500 uM GlcN6P (glucosamine-6-phosphate [6]) | self-cleavage kobs at 10000 uM GlcN6P (glucosamine-6-phosphate [7])
1 | AUAAAAGCGCCAGAACUACAGAAAUGUAGUUGACGAGGAGGAGGUUUAUCGAAGUUUCGGCGGAUGCGUCCAAA [U54G C68G] | 0.0001 ± 1e-05 s⁻¹ | 89.1 ± 43 µM | 2.37e-05 ± 7.3e-06 s⁻¹ | 6.82e-05 ± 8.7e-06 s⁻¹ | 0.000111 ± 1.1e-05 s⁻¹ | 8.41e-05 ± 9.1e-06 s⁻¹ | 9.69e-05 ± 8.7e-06 s⁻¹
2 | AUAAAAGCGCCAGAACUACAGAAAUGUAGUUGACGAGGAGGAGGUUUAUCGAAGUUUCGGCGGAGGCCUCCAAA [U54G U65G] | 0.00368 ± 0.00099 s⁻¹ | 3430 ± 1300 µM | 5.92e-05 ± 6.8e-06 s⁻¹ | 0.00012 ± 2.1e-05 s⁻¹ | 0.000629 ± 9e-05 s⁻¹ | 0.00144 ± 0.00021 s⁻¹ | 0.00282 ± 0.00029 s⁻¹
3 | AUAAAAGCGCCAGAACUACAGAAAUGUAGUUGACGAGGAGGAGGUUUAUCGAACUUUCGGCGGAUACCUCCAAA [U54C G66A] | 0.011 ± 0.0023 s⁻¹ | 1100 ± 320 µM | 0.000397 ± 5.3e-05 s⁻¹ | 0.00112 ± 0.0004 s⁻¹ | 0.00522 ± 0.0011 s⁻¹ | 0.00593 ± 0.0014 s⁻¹ | 0.0118 ± 0.0022 s⁻¹
4 | AUAAAAGCGCCAGAACUACAGAAAUGUAGUUGACGAGGAGGAGGUUUAUCGAAGUUUCGACGGAUGCCUCCAAA [U54G G60A] | 2.28e-05 ± 5.4e-06 s⁻¹ | – | – | < 1e-05 s⁻¹ | – | – | –
5 | AUAAAAGCGCCAGAACUACAGAAAUGUAGUUGACGAGGAGGAGGUUUAUCGAAGUUUCGGGGGAUGCCUCCAAA [U54G C61G] | 1.78e-05 ± 5.8e-06 s⁻¹ | – | < 1e-05 s⁻¹ | – | – | – | –
6 | AUAAAAGCGCCAGAACUACAGAAAUGUAGUUGACGAGGAGGAGGUUUAUCGAAGUUUCGGUGGAUGCCUCCAAA [U54G C61U] | 2.79e-05 ± 5.8e-06 s⁻¹ | – | – | – | – | 3.11e-05 ± 1.3e-05 s⁻¹ | 2.39e-05 ± 1e-05 s⁻¹
7 | AUAAAAGCGCCAGAACUACAGAAAUGUAGUUGACGAGGAGGAGGUUUAUCGAACUUGCGGCGGAUGCCUCCAAA [U54C U57G] | 0.000492 ± 1.5e-05 s⁻¹ | – | – | – | – | – | 6.43e-05 ± 1.1e-05 s⁻¹
8 | AUAAAAGCGCCAGAACUACAGAAAUGUAGUUGACGAGGAGGAGGUUUAUCGAACUUACGGCGGAUGCCUCCAAA [U54C U57A] | 0.000407 ± 0.00018 s⁻¹ | – | – | – | 7.93e-05 ± 1.9e-05 s⁻¹ | 0.000112 ± 2.5e-05 s⁻¹ | 0.000297 ± 4.3e-05 s⁻¹
9 | AUAAAAGCGCCAGAACUACAGAAAUGUAGUUGACGAGGAGGAGGUUUAUCGAAGUUUCCGCGGAUGCCUCCAAA [U54G G59C] | < 1e-05 s⁻¹ | – | – | – | < 1e-05 s⁻¹ | – | –
10 | AUAAAAGCGCCAGAACUACAGAAAUGUAGUUGACGAGGAGGAGGUUUAUCGAAGUAUCGGCGGAUGCCGCCAAA [U54G U56A U69G] | 5.38e-05 ± 1.1e-05 s⁻¹ | – | 4.11e-05 ± 1.9e-05 s⁻¹ | – | 7.97e-05 ± 1.8e-05 s⁻¹ | 4.21e-05 ± 1.1e-05 s⁻¹ | 6e-05 ± 1.8e-05 s⁻¹
11 | AUAAAAGCGCCAGAACUACAGAAAUGUAGUUGACGAGGAGGAGGUUUAUCGAACUUUCGGCGGAUGCCUCGAAA [U54C C71G] | 0.00083 ± 0.00027 s⁻¹ | – | – | 0.000132 ± 5.7e-05 s⁻¹ | 0.000424 ± 0.00013 s⁻¹ | 0.000351 ± 0.00011 s⁻¹ | 0.00091 ± 0.00016 s⁻¹
12 | AUAAAAGCGCCAGAACUACAGAAAUGUAGUUGACGAGGAGGAGGUUUAUCGAAGUUUGGGCGGAUGCCUCCAAA [U54G C58G] | 0.000237 ± 2.6e-05 s⁻¹ | 4280 ± 1000 µM | – | – | – | 9.35e-05 ± 1.7e-05 s⁻¹ | 0.000164 ± 2e-05 s⁻¹
13 | AUAAAAGCGCCAGAACUACAGAAAUGUAGUUGACGAGGAGGAGGUUUAUCGAACUUUCGGCGGAUGCCUUCAAA [U54C C70U] | 0.00794 ± 0.0014 s⁻¹ | 507 ± 130 µM | 0.000628 ± 8e-05 s⁻¹ | 0.00162 ± 0.00035 s⁻¹ | 0.00435 ± 0.0008 s⁻¹ | – | 0.00879 ± 0.0016 s⁻¹
14 | AUAAAAGCGCCAGAACUACAGAAAUGUAGUUGACGAGGAGGAGGUUUAUCGAAGUUUCGGCGGAUGCCUCCAAA [U54G] | 0.0504 ± 0.0099 s⁻¹ | 1870 ± 470 µM | 0.00117 ± 3.8e-05 s⁻¹ | 0.00365 ± 0.00023 s⁻¹ | 0.0116 ± 0.00052 s⁻¹ | 0.0251 ± 0.0014 s⁻¹ | 0.0511 ± 0.0026 s⁻¹
15 | AUAAAAGCGCCAGAACUACAGAAAUGUAGUUGACGAGGAGGAGGUUUAUCGAAGUUUCGGCGGAUGCCUACAAA [U54G C70A] | 0.000123 ± 2.4e-05 s⁻¹ | – | 8.02e-05 ± 1.4e-05 s⁻¹ | 7.71e-05 ± 1.8e-05 s⁻¹ | 0.000198 ± 2.9e-05 s⁻¹ | 0.000143 ± 2.9e-05 s⁻¹ | 0.000109 ± 1.6e-05 s⁻¹
16 | AUAAAAGCGCCAGAACUACAGAAAUGUAGUUGACGAGGAGGAGGUUUAUCGAACUUUCGGCGGAGGCCUCCAAA [U54C U65G] | 0.00585 ± 0.0014 s⁻¹ | 5410 ± 1800 µM | 5.43e-05 ± 8.6e-06 s⁻¹ | 0.000122 ± 2.6e-05 s⁻¹ | 0.000671 ± 0.00011 s⁻¹ | 0.00207 ± 0.00032 s⁻¹ | 0.00371 ± 0.00042 s⁻¹
